Paper PMC11045720, “Denaturing mass photometry for rapid optimization of chemical protein-protein cross-linking reactions” (Nature Communications, 2024)

Target: the molecule itself
Test: cross-linking; formaldehyde 0.05% to 1% (vol/vol) on 1 mg/mL protein, 20 min at room temperature; read by denaturing mass photometry

B1: L-Glutamate dehydrogenase from bovine liver (enzyme)
chain: not shown
notes: L-Glutamate dehydrogenase from bovine liver (Sigma); also called GLDH; source: bought: Sigma (from bovine liver)
  stoichiometry N: 6
